From patent US20250109212A1 come the findings set out here.

One may read the pIC50 as the negative decadic logarithm of the IC50, by convention in mol/L. As a reminder, the pEC50 is −log10 of the EC50, conventionally taken in molar units.

The target in assay [1] is full length human CD47 (NCBI #NP_942088.1) on 293F-CD47 cells (human) (UniProt Q08722). As to the kind of experiment: cell-based blocking FACS on 293F-CD47 cells, blocked ligand biotin-labeled human CD172a-Fc, MFI.
Assay [2] has the same target. The assay is described as above. This is another data set of the same source.
The target is the same in assay [3]. As to the kind of experiment: FACS on 293F-CD47 cells, detection with goat anti-human IgG (Fc)-PE, MFI.

pEC50, pIC50: −log10 of the molar value. Read-outs that look alike come from different tables or passages of the source.

With SIRPα-isoform2-Fc (Fc fusion), the figures for the pIC50 in assay [1] and in assay [2] were 8.72 and 8.49, respectively. This substance also gave a pEC50 in assay [3] of 8.77.
